Data as given in publication PMC9638904, “Structure and mechanism of the type I-G CRISPR effector” (Nucleic Acids Research, 2022).

What was measured:
[1] = target: the molecule itself; assay: cryo-EM structure; SEC-purified complex of Cas7, Cas8g, Csb2 and 72 nt crRNA, 1 mg/ml; Titan Krios 300 kV; multibody refinement for Cas8g (~8 Å)
[2] = target: T1, Csb2 N-terminal (Cas5-like) domain (Thioalkalivibrio sulfidiphilus HL-EbGr7, UniProt B8GLG2 1-259); assay: fluorescence anisotropy; Anisotropy: 25 nM RNA, 50 mM NaCl, 1 mM DTT, 5 mM MgCl2, 1 mM EDTA, 0.1 U/ul RNase inhibitor, 37 C; EMSA/plasmid: 20 mM Tris-HCl, 50 mM NaCl, 1 mM DTT, 0.1 mg/ml BSA, 5 mM MgCl2, 1 mM EDTA, 37 C (30 min EMSA, 1 h plasmid); conditions: protein: recombinant, tags: N-terminal His8-TEV, removed
T1 sequence: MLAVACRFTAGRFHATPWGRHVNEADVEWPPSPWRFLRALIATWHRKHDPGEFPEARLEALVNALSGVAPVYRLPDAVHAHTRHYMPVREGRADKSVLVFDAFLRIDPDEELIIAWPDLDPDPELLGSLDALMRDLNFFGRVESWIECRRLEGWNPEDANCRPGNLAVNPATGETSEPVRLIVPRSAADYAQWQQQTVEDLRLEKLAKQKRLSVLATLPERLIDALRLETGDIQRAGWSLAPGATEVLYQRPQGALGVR

[3] = target: T2, Csb2 (Thioalkalivibrio sulfidiphilus HL-EbGr7, UniProt B8GLG2 1-516); assay: fluorescence anisotropy; 5 mM MgCl2, 1 mM EDTA; Anisotropy: 25 nM RNA, 50 mM NaCl, 1 mM DTT, 5 mM MgCl2, 1 mM EDTA, 0.1 U/ul RNase inhibitor, 37 C; EMSA/plasmid: 20 mM Tris-HCl, 50 mM NaCl, 1 mM DTT, 0.1 mg/ml BSA, 5 mM MgCl2, 1 mM EDTA, 37 C (30 min EMSA, 1 h plasmid); conditions: protein: recombinant; tags: cloning described in pET-Duet and pEV5HisTEV; His8-TEV tag removed; label: 5'-6-FAM; hairpin
T2 sequence: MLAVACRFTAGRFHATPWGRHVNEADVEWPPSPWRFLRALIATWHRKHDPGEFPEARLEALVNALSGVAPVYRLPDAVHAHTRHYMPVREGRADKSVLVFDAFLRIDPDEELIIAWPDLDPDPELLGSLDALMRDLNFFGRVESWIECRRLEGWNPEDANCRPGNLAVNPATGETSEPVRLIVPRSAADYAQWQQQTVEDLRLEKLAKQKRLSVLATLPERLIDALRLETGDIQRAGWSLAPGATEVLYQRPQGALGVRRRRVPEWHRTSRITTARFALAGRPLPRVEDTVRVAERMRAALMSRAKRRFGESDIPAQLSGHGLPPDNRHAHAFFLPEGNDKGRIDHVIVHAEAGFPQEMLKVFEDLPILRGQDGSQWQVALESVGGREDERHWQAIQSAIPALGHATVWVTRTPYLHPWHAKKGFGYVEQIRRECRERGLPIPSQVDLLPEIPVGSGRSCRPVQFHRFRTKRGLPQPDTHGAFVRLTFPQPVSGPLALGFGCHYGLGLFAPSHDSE

[4] = target: Csb2;Cas7;Cas8g;Cas3 (Thioalkalivibrio sulfidiphilus …, UniProt B8GLG2;B8GLG3;B8GLG4;B8GLG5 1-516;1-316;1-720;1-828, |||); assay: EMSA; 0.8 uM effector; near-complete shift; Anisotropy: 25 nM RNA, 50 mM NaCl, 1 mM DTT, 5 mM MgCl2, 1 mM EDTA, 0.1 U/ul RNase inhibitor, 37 C; EMSA/plasmid: 20 mM Tris-HCl, 50 mM NaCl, 1 mM DTT, 0.1 mg/ml BSA, 5 mM MgCl2, 1 mM EDTA, 37 C (30 min EMSA, 1 h plasmid); conditions: protein: recombinant;recombinant;recombinant;recombinant; tags: cloning described in pET-Duet and pEV5HisTEV; copies: 1;7;1;1; label: 32P 5' end on DNA; crRNA / target strand / non-target strand; target strand as printed has 1 nt 5' overhang
[5] = target: T3, Csb2;Cas7 (Thioalkalivibrio sulfidiphilus …, UniProt B8GLG2;B8GLG3 1-516;1-316, |); assay: EMSA; 0.8 uM effector; no Cas8g, no Cas3; no apparent shift; Anisotropy: 25 nM RNA, 50 mM NaCl, 1 mM DTT, 5 mM MgCl2, 1 mM EDTA, 0.1 U/ul RNase inhibitor, 37 C; EMSA/plasmid: 20 mM Tris-HCl, 50 mM NaCl, 1 mM DTT, 0.1 mg/ml BSA, 5 mM MgCl2, 1 mM EDTA, 37 C (30 min EMSA, 1 h plasmid); conditions: protein: recombinant;recombinant, tags: cloning described in pET-Duet and pEV5HisTEV, His8-TEV tag removed;N-terminal His8-TEV, copies: 1;7, label: 32P 5' end on DNA, crRNA / target strand / non-target strand, target strand as printed has 1 nt 5' overhang
T3 sequence 1: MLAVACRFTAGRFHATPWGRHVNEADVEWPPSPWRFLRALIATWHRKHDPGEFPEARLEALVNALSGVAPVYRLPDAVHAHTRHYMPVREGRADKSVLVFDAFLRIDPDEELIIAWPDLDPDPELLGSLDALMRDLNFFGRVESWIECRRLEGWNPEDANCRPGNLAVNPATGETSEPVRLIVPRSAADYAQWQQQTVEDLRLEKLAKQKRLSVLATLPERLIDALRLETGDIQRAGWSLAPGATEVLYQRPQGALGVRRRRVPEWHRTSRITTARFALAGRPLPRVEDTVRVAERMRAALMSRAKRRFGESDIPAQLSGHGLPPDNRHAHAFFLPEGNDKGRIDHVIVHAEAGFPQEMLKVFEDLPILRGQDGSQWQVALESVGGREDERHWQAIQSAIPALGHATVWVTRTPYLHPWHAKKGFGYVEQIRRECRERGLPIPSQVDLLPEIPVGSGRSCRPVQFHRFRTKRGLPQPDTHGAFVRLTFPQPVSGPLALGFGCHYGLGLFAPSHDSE
T3 sequence 2: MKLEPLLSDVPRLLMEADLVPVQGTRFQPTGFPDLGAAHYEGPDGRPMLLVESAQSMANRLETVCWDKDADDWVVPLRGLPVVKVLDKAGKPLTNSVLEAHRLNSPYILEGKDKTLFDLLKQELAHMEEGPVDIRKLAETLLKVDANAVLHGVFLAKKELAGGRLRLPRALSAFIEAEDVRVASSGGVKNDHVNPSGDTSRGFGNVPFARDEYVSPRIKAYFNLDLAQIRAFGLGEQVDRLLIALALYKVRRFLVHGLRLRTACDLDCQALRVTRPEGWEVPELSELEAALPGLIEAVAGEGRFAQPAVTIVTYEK

[6] = target: T4, Cas3 (Thioalkalivibrio sulfidiphilus HL-EbGr7, UniProt B8GLG5 1-828); assay: EMSA; Cas3 alone; TS- or NTS-labelled; Anisotropy: 25 nM RNA, 50 mM NaCl, 1 mM DTT, 5 mM MgCl2, 1 mM EDTA, 0.1 U/ul RNase inhibitor, 37 C; EMSA/plasmid: 20 mM Tris-HCl, 50 mM NaCl, 1 mM DTT, 0.1 mg/ml BSA, 5 mM MgCl2, 1 mM EDTA, 37 C (30 min EMSA, 1 h plasmid); conditions: protein: recombinant; tags: N-terminal His8-TEV, removed; label: 32P on TS or NTS (EMSA); 1 nt 5' overhang on strand 1 as printed
T4 sequence: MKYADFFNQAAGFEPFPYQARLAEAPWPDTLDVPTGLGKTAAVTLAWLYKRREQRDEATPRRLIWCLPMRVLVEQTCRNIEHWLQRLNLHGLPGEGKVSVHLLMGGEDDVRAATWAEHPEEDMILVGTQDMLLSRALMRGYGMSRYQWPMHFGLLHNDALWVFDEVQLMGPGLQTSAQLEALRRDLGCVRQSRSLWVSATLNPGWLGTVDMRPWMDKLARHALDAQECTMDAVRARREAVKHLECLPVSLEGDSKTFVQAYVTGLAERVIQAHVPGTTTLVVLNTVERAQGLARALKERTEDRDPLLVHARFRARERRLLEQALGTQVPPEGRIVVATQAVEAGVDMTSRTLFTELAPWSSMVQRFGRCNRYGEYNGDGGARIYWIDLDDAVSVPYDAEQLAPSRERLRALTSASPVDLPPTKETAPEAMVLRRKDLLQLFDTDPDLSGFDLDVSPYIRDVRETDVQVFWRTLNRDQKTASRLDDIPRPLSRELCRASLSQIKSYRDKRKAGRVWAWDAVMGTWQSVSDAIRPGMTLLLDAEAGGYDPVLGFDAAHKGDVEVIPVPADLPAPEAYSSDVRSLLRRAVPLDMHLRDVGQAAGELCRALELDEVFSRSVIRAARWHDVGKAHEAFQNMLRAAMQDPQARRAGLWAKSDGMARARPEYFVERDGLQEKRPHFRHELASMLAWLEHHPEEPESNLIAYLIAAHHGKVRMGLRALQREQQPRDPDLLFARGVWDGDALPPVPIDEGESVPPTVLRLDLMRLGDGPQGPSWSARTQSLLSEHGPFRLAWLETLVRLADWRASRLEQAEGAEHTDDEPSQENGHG

[7] = target: T2, Csb2; assay: fluorescence anisotropy; no appreciable binding; Anisotropy: 25 nM RNA, 50 mM NaCl, 1 mM DTT, 5 mM MgCl2, 1 mM EDTA, 0.1 U/ul RNase inhibitor, 37 C; EMSA/plasmid: 20 mM Tris-HCl, 50 mM NaCl, 1 mM DTT, 0.1 mg/ml BSA, 5 mM MgCl2, 1 mM EDTA, 37 C (30 min EMSA, 1 h plasmid); conditions: protein: recombinant; tags: cloning described in pET-Duet and pEV5HisTEV; His8-TEV tag removed

B1: Cas7 (type I-G CRISPR effector subunit, Thioalkalivibrio sulfidiphilus HL-EbGr7) (natural protein, UniProt B8GLG3 1-316, looked up)
chain: MKLEPLLSDVPRLLMEADLVPVQGTRFQPTGFPDLGAAHYEGPDGRPMLLVESAQSMANRLETVCWDKDADDWVVPLRGLPVVKVLDKAGKPLTNSVLEAHRLNSPYILEGKDKTLFDLLKQELAHMEEGPVDIRKLAETLLKVDANAVLHGVFLAKKELAGGRLRLPRALSAFIEAEDVRVASSGGVKNDHVNPSGDTSRGFGNVPFARDEYVSPRIKAYFNLDLAQIRAFGLGEQVDRLLIALALYKVRRFLVHGLRLRTACDLDCQALRVTRPEGWEVPELSELEAALPGLIEAVAGEGRFAQPAVTIVTYEK
notes: synthetic gene, codon-optimised for E. coli; Seven copies stand on the crRNA in the Cascade complex; also called Cas7.1 to Cas7.7 (the seven copies in the complex); source: E. coli C43(DE3), purified (HisTrap, TEV cleavage, gel filtration); not shown: His8, N-terminal, cleaved
[1]
  stoichiometry N: 7

## GUCAUCCGCGGCAUUUAGCCGCGGCCUCAUUGAAGC (structured_RNA) [CRISPR repeat RNA (36 nt)]
[2]; label: 5'-6-FAM, hairpin
  binding result: no binding
[3]
  Kd: 55 nM

## GUCAUCCGCGGCAUUUAGCCGCGGCCUC (structured_RNA) [3' hairpin RNA (28 nt)]
[2]; label: 5'-6-FAM, hairpin
  binding result: no binding
[3]
  Kd: 43 nM

B2: Tet crRNA with 80 bp target dsDNA (mixed)
RNA: AUUGAAGCAAGCUGUCCCUGAUGGUCGUCAUCUACCUGCCUGGAGUCAUCCGCGGCAUUUAGCCGCGGCCUC
DNA 1: GCCCGCGTTGCAGGCCATGCTGTCCAGGCAGGTAGATGACGACCATCAGGGACAGCTTCAAGGATCGCTCGCGGCTCTTAC
DNA 2: GTAAGAGCCGCGAGCGATCCTTGAAGCTGTCCCTGATGGTCGTCATCTACCTGCCTGGACAGCATGGCCTGCAACGCGGG
[4]
  binding result: binds
[5]
  binding result: no binding

B3: 80 bp target dsDNA (no crRNA) (dsDNA)
DNA 1: GCCCGCGTTGCAGGCCATGCTGTCCAGGCAGGTAGATGACGACCATCAGGGACAGCTTCAAGGATCGCTCGCGGCTCTTAC
DNA 2: GTAAGAGCCGCGAGCGATCCTTGAAGCTGTCCCTGATGGTCGTCATCTACCTGCCTGGACAGCATGGCCTGCAACGCGGG
[6]
  binding result: no binding

## AUUGAAGC (ssRNA) [8 nt 5' handle RNA]
[2]
  binding result: no binding
[7]
  binding result: no binding
